Source: patent US20110070615A1 (published 2011)

B1: L19H19 (Fab, V domains shown)
VH: QVQLVESGPGLVKPSGTLSLTCAVSGGSISSSNWWSWVRQPPGKGLEWIGEIYHSGSTNYNPSLKSRVTISVDKSKNQFSLKLSSVTAADTAVYYCARDSSGFYGMDVWGQGTTVTVSS
VL: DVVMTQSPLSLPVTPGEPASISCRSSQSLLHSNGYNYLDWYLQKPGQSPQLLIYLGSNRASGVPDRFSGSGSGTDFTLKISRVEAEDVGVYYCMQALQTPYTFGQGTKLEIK
B2: L18H18 (Fab, V domains shown)
VH: QVQLVESGGGVVRPGGSLRLSCAASGFTFSSYAMSWVRQAPGKGLEWVSTISGSGGSTYYADSVKGRFTISRDNSKNTLYLQMNSLRAEDTAVYYCAKERGSGWSLDNMDVWGQGTTVTVSS
VL: DIQLTQSPSSVSASVGDRVTITCRASQGISRWLAWYQQKPGKAPRLLIYAASGLQSGVPSRFSGSGSGTDFTLTISNLQPEDFATYYCQQASSFPITFGQGTRLETK
B3: L16H16 (Fab, V domains shown)
VH: QVQLQESGPGLVKPSGTLSLTCAVSGGSISSSNWWSWVRQPPGKGLEWIGEIYHSGSTNYNPSLKSRVTISVDKSKNQFSLKLSSVTAADTAVYYCARWTGRTDAFDIWGQGTMVTVSS
VL: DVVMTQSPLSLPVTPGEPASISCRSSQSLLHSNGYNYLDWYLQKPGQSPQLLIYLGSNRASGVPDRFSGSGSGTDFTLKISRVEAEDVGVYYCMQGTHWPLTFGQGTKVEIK
B4: L20H20 (Fab, V domains shown)
VH: QVQLQESGPGLVKPSGTLSLTCAVSGGSISSSNWWSWVRQPPGKGLEWIGEIYHSGSTNYNPSLKSRVTISVDKSKNQFSLKLSSVTAADTAVYYCARSSSWYWNAFDIWGQGTMVTVSS
VL: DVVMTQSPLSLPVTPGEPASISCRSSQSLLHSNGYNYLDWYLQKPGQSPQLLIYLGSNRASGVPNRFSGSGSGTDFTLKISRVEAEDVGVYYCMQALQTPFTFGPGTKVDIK

Each binder was assayed against T1, hu IGF-1R(ECD)-C3-muIgG1Fc (human; mouse, Glycosylated. About 60% of the preparation is cleaved at RKRR (chain pos 708-711) into disulfide-linked alpha and beta chains, 40% is uncleaved. Dimer through receptor and Fc disulfides.) (assay: phage Fab ELISA, IGF-1R-C3-mFc coated at 5 µg/ml, anti-M13-HRP).
T1 construct: 60% of the purified protein was processed into α and β chains, 40% unprocessed; also called IGF-1R(ECD)-C3-muFc; IGF-1R-C3-muFc
Procedure: In 96-well 2-ml deep-well blocks, 480 μl/well 2×YT-CG broth was inoculated with 20 μl of overnight cultures of the individual clones, then incubated at 37° C., 300 rpm for 3 hours. To each well, 50 μl of 1:3 diluted M13KO7 helper phage were added to infect the cells. The block was incubated at 37° C. without shaking for 30 minutes, and then shaken gently for another 30 minutes at 150 rpm. The block was centrifuged at 3600 rpm for 20 minutes to pellet the infected cells. The cell pellet in each well was suspended into 480 μl of 2×YT-CK (2×YT broth containing 100 μg/ml carbenicillin and 40 μg/ml kanamycin), and incubated at 30° C. overnight for about 20 hours. The cell debris was separated by centrifugation at 3600 rpm for 20 minutes. The rescued phage supernatant was used in the phage ELISA to check for IGF-1R-specific, INSR-cross reactive, or mouse Fc binding of individual clones.
Three sets of Nunc MaxiSorb Immunoplates were coated with 100 μ/well of IGF-1R-C3-mFc at 5 μg/ml, INSR-mFc at 5 μg/ml, or mouse IgG1 (catalog #010-0103, Rockland, Gilbertsville, Pa.) at 2 μg/ml in PBS, respectively, at 4° C. overnight. The coated plates were washed 3× with […] of PBS. The washed plates were blocked with 300 μl/well 2% MPBS at room temperature for one hour. Meanwhile, rescued phages of individual clones were pre-blocked by mixing 170 μof rescued phage with 170 μl of 4% MPBS. The blocked plates were washed 5× with 300 μl/well TBST (TBS: 10 mM Tris-HCl, pH 7.5, 1 mM EDTA, 150 mM NaCl; Tween-20. 0.1%). 100 μl/well of pre-blocked phage dilutions were distributed to each set of coated plate, which were incubated at room temperature on a rocker for 90 minutes. The plates were washed 5× with 300 μl/well TBST. 100 μl/well of anti-M13-HRP in 2% MPBS (1:3000 dilution, catalog number 27-9421-01, Amersham Pharmacia Biotech) were distributed, and plates were incubated at room temperature on rocker for one hour. The plates were washed 5× with 300 μl/well TBST. 100 μl/well of the substrate 1-Step™ ABTS (Pierce Biotechnology, Rockford, Ill., catalog number 37615) were added. Plates were incubated for one hour. OD₄₀₅ was measured for signal detection.

Binding result, binds:
B1
B2
B3
B4
